Experimental data: patent US20260139049A1 (PEDIATRIC IMMUNITY AND HEALTHCARE GUANGZHOU BIOTECHNOLOGY, published 2026)
Like-named read-outs stand apart in the source and are kept apart here.

Legend:
human CLDN6 [1] = target: T1, human CLDN6 (human, UniProt P56747 1-220); assay: FACS on HEK293T-CLDN6 cells
T1 construct: whole, on cells; four-transmembrane protein; also called claudin-6; HEK293T-CLDN6
T1 sequence (looked up): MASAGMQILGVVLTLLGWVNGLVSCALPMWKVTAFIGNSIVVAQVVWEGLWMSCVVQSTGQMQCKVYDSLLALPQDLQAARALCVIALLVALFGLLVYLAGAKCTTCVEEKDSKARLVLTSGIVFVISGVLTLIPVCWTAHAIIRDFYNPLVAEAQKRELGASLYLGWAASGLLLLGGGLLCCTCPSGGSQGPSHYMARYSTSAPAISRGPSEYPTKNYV
Description: (§1) To detect a binding capacity of a chimeric or humanized antibody to CLDN6, a CLDN6-expressing cell line HEK293T-CLDN6 and a CLDN6-negative control cell line HEK293T were washed three times with PBS. 1×10⁵ test cells and 50 μL of an antibody solution to be tested were added to a 96-well plate, and incubated at 4° C. for 1 h. The cells were then washed three times with PBS. […] Finally, cells were washed three times with PBS, and signals were read using FACS.
(§2) An EC50 value (a concentration of an antibody that binds to half of binding sites at equilibrium) is calculated through nonlinear regression.

human CLDN6 [2] = target: T1, human CLDN6; assay: FACS on HEK293T-CLDN6 cells; remark: listed apart in the source
Description: as §1, §2

[3] = target: T2, monkey CLDN6 (Cyno CLDN6) (monkey (Cyno)); assay: FACS on CHO-K1-Cyno CLDN6 cells
T2 construct: whole, on cells; also called CHO-K1-Cyno CLDN6

mouse CLDN6 = target: T3, mouse CLDN6 (mouse, UniProt Q9Z262 1-219); assay: FACS on CHO-K1-Mouse CLDN6 cells
T3 construct: whole, on cells; also called CHO-K1-Mouse CLDN6
T3 sequence (looked up): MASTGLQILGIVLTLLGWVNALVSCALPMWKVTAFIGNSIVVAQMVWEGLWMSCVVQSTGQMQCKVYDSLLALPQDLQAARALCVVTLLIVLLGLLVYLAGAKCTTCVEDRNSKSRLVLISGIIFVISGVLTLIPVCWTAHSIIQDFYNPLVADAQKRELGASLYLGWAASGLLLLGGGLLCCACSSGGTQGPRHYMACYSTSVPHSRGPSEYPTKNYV

human CLDN3 = target: T4, human CLDN3 (human, UniProt O15551 1-220); assay: FACS on 293T-CLDN3 cells, 10 µg/mL
T4 construct: whole, on cells; also called HEK293T-CLDN3
T4 sequence (looked up): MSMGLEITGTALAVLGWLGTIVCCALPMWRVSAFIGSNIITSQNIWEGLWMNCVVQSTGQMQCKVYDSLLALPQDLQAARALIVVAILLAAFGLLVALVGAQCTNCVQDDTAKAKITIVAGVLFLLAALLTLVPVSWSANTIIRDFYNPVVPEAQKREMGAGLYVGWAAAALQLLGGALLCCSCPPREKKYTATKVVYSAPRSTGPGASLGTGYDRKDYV
Description: (§3) 50 μL of an antibody to be tested was added to a 96-well plate, then 1× 10⁵ cells were added to each well, and incubation was conducted at 4° C. for 1 h. Cells were washed three times with PBS. […] Finally, cells were washed three times with PBS, and signals were read using FACS. Binding capacities of the antibody to CLDN9, CLDN3, and CLDN4 were analyzed separately based on detection data.

human CLDN9 [4] = target: T5, human CLDN9 (human, UniProt O95484 1-217); assay: FACS on 293T-CLDN9 cells, 10 µg/mL
T5 construct: whole, on cells; also called HEK293T-CLDN9
T5 sequence (looked up): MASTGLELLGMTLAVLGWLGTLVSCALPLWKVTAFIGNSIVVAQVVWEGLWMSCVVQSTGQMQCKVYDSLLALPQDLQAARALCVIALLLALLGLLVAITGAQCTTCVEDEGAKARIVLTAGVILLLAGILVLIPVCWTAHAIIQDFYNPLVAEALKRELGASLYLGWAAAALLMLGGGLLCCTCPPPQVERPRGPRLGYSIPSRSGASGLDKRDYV
Description: as §3

human CLDN6 [5] = target: T1, human CLDN6; assay: FACS on 293T-CLDN6 cells, 10 µg/mL
human CLDN6 [6] = target: T1, human CLDN6; assay: FACS on 293T-CLDN6 cells, 10 µg/mL; remark: listed apart in the source
human CLDN9 [7] = target: T5, human CLDN9; assay: FACS on 293T-CLDN9 cells, 10 µg/mL; remark: listed apart in the source
Description: as §3

human CLDN6 [8] = target: T1, human CLDN6; assay: FACS on PA-1 tumour cells; target on the cells taken as CLDN6
Description: (§4) The specific binding of a chimeric antibody to a tumor cell was detected by FACS, and an EC50 value was calculated accordingly to evaluate an inhibitory effect of the chimeric antibody on the tumor cell.
as §3, with “1×10⁵” for “1× 10⁵”, “A binding capacity” for “Binding capacities”, “each tumor cell was” for “CLDN9, CLDN3, and CLDN4 were”, “analyzed” for “analyzed separately”

human CLDN6 [9] = target: T1, human CLDN6; assay: as above; remark: listed apart in the source
Description: as §3, with “1×10⁵” for “1× 10⁵”, “A binding capacity” for “Binding capacities”, “each tumor cell was” for “CLDN9, CLDN3, and CLDN4 were”, “analyzed” for “analyzed separately”

human CLDN6 [10] = target: T1, human CLDN6; assay: as above; remark: listed apart in the source
Description: as §3, with “1×10⁵” for “1× 10⁵”, “A binding capacity” for “Binding capacities”, “each tumor cell was” for “CLDN9, CLDN3, and CLDN4 were”, “analyzed” for “analyzed separately”

human CLDN6 [11] = target: T1, human CLDN6; assay: FACS on HepG2 tumour cells; target on the cells taken as CLDN6
Description: as §4
as §3, with “1×10⁵” for “1× 10⁵”, “A binding capacity” for “Binding capacities”, “each tumor cell was” for “CLDN9, CLDN3, and CLDN4 were”, “analyzed” for “analyzed separately”

human CLDN6 [12] = target: T1, human CLDN6; assay: as above; remark: listed apart in the source
Description: as §3, with “1×10⁵” for “1× 10⁵”, “A binding capacity” for “Binding capacities”, “each tumor cell was” for “CLDN9, CLDN3, and CLDN4 were”, “analyzed” for “analyzed separately”

human CLDN6 [13] = target: T1, human CLDN6; assay: as above; remark: listed apart in the source
Description: as §3, with “1×10⁵” for “1× 10⁵”, “A binding capacity” for “Binding capacities”, “each tumor cell was” for “CLDN9, CLDN3, and CLDN4 were”, “analyzed” for “analyzed separately”

human CLDN6 [14] = target: T1, human CLDN6; assay: ratio of FACS Geom.Mean on 293T-CLDN6 over 293T-CLDN9, 10 µg/mL
Description: as §3

EC50 (human CLDN6 [1]): 0.0727 µg/mL
EC50 (human CLDN6 [2]): 0.282 µg/mL
EC50 [3]: 0.131 µg/mL
EC50 (mouse CLDN6): 0.181 µg/mL
Geom.Mean (human CLDN3): 151
Geom.Mean (human CLDN9 [4]): 985
Geom.Mean (human CLDN6 [5]): 23600
Geom.Mean (human CLDN6 [6]): 23600
Geom.Mean (human CLDN9 [7]): 1810
EC50 (human CLDN6 [8]): 0.0741 µg/mL
EC50 (human CLDN6 [9]): 0.223 µg/mL
EC50 (human CLDN6 [10]): 0.141 µg/mL
EC50 (human CLDN6 [11]): 0.192 µg/mL
EC50 (human CLDN6 [12]): 0.242 µg/mL
EC50 (human CLDN6 [13]): 0.515 µg/mL
CLDN6/CLDN9 ratio (human CLDN6 [14]): 45
B1: IMAB027 (antibody, human IgG1, kappa, V domains shown)
VH: EVQLQQSGPELVKPGASMKISCKASGYSFTGYTMNWVKQSHGKNLEWIGLINPYNGGTIYNQKFKGKATLTVDKSSSTAYMELLSLTSEDSAVYYCARDYGFVLDYWGQGTTLTVSS
VL: IVLTQSPAIMSASPGEKVTITCSASSSVSYLHWFQQKPGTSPKLWVYSTSNLPSGVPARFGGSGSGTSYSLTISRMEAEDAATYYCQQRSIYPPWTFGGGTKLEIKR
notes: variable regions of mAb206-LCC on human IgG1 constant regions; also called benchmark antibody; control antibody
